Read-outs that look alike come from different tables or passages of the source. Values belong to the substance of their own block, whether it stands above or below them.
Legend:
[1] = molecular target: human tryptase (purified from human lung tissue) (human) (UniProt Q15661); assay: enzyme inhibition, steady state velocities on Tos-Gly-Pro-Arg-pNA, tight binding fit; Ki for the inhibition of two of the four subunits of the tryptase-tetramer
[2] = molecular target: human tryptase (purified from human lung tissue) (human) (UniProt Q15661)
[3] = molecular target: porcine pancreatic kallikrein (porcine) (UniProt P00752)
[4] = molecular target: human cathepsin G (human) (UniProt P08311)
human plasmin (human) [5] = molecular target: human plasmin (human) (UniProt P00747)
human thrombin (human) [6] = molecular target: human thrombin (human) (UniProt P00734)
[7] = molecular target: human tryptase (purified from human lung tissue) (human) (UniProt Q15661); assay: enzyme inhibition, steady state velocities on Tos-Gly-Pro-Arg-pNA, tight binding fit
bovine trypsin (bovine) [8] = molecular target: bovine trypsin (bovine) (UniProt P00760); assay: as above
[9] = molecular target: human tryptase (purified from human lung tissue) (human) (UniProt Q15661); remark: listed apart in the source
[10] = molecular target: bovine chymotrypsin (bovine) (UniProt P00766); assay: enzyme inhibition, steady state velocities on Suc-Val-Pro-Phe-pNA, tight binding fit
[11] = molecular target: human plasma kallikrein (human) (UniProt P03952); assay: enzyme inhibition at 0.2 µM inhibitor, Table 5
human urokinase (human) = human urokinase (human) (UniProt P00749); assay: enzyme inhibition at 0.2 µM inhibitor, Table 5
[12] = molecular target: porcine pancreatic kallikrein (porcine) (UniProt P00752); assay: enzyme inhibition at 0.2 µM inhibitor, Table 5
[13] = molecular target: human cathepsin G (human) (UniProt P08311); assay: enzyme inhibition at 0.2 µM inhibitor, Table 5
human factor Xa (human) = human factor Xa (human) (UniProt P00742); assay: enzyme inhibition at 0.2 µM inhibitor, Table 5
human plasmin (human) [14] = molecular target: human plasmin (human) (UniProt P00747); assay: enzyme inhibition at 0.2 µM inhibitor, Table 5
human thrombin (human) [15] = molecular target: human thrombin (human) (UniProt P00734); assay: enzyme inhibition at 0.2 µM inhibitor, Table 5
[16] = molecular target: porcine pancreatic elastase (porcine) (UniProt P00772); assay: enzyme inhibition at 0.2 µM inhibitor, Table 5
[17] = molecular target: human neutrophil elastase (human) (UniProt P08246); assay: enzyme inhibition at 0.2 µM inhibitor, Table 5
[18] = molecular target: human tryptase (purified from human lung tissue) (human) (UniProt Q15661); remark: listed apart in the source
[19] = molecular target: human tryptase (purified from human lung tissue) (human) (UniProt Q15661); assay: enzyme inhibition, tos-Gly-Pro-Arg-pNa as substrate
[20] = molecular target: human tryptase (purified from human lung tissue) (human) (UniProt Q15661); remark: listed apart in the source
bovine trypsin (bovine) [21] = molecular target: bovine trypsin (bovine) (UniProt P00760)
Target sequence in this assay (P00760 24-246): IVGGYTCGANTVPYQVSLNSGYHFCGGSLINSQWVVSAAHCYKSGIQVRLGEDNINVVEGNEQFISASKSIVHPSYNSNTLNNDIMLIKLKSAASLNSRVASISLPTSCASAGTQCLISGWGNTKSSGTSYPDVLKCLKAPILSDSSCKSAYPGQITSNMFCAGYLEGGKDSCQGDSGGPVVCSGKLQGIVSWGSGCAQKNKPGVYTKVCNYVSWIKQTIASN

Chain of recombinant leech-derived tryptase inhibitor form C, secreted by Saccharomyces cerevisiae (strain S-78 with pRM 9.1.4) (chain): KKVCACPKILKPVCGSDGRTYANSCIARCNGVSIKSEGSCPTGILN

Ki [1]: 1.4 nM
amidolytic activity of tryptase on tos-Gly-Pro-Arg-pNa [2]: 50%
amidolytic activity of tissue kallikrein on D-Val-Leu-Arg-pNA, inhibitor at 0.2 µM [3]: 14%
amidolytic activity of cathepsin G on Suc-Val-Pro-Phe-pNA, inhibitor at 0.2 µM [4]: 11%
amidolytic activity of plasmin on Tos-Gly-Pro-Lys-pNA, inhibitor at 0.2 µM (human plasmin (human) [5]): 30%
amidolytic activity of thrombin on Tos-Gly-Pro-Arg-pNA, inhibitor at 0.2 µM (human thrombin (human) [6]): 12%
Ki [nM], first of the two columns so headed [7]: 1.8 nM
Ki (bovine trypsin (bovine) [8]): 0.9 nM
Ki [nM], first of the two columns so headed (bovine trypsin (bovine) [8]): 4.7 nM
tryptase-induced breakdown of vasoactive intestinal peptide (VIP), reversed phase HPLC [9]: 66%
Ki [10]: 20 nM
Ki [nM], first of the two columns so headed [10]: 137 nM
Ki relative to the complex with tryptase (times higher) [11]: > 200 times
Ki relative to the complex with tryptase (times higher) (human urokinase (human)): > 200 times
Ki relative to the complex with tryptase (times higher) [12]: > 200 times
Ki relative to the complex with tryptase (times higher) [13]: > 200 times
Ki relative to the complex with tryptase (times higher) (human factor Xa (human)): > 200 times
Ki relative to the complex with tryptase (times higher) (human plasmin (human) [14]): > 200 times
Ki relative to the complex with tryptase (times higher) (human thrombin (human) [15]): > 200 times
Ki relative to the complex with tryptase (times higher) [16]: > 200 times
Ki relative to the complex with tryptase (times higher) [17]: > 200 times
tryptase-induced growth of HaCaT keratinocytes (3H-thymidine incorporation) [18]: 99%
Substance: leech-derived tryptase inhibitor (isolated from extract of the medical leech Hirudo medicinalis)

Ki [19]: 1.9 nM
amidolytic activity of tryptase on tos-Gly-Pro-Arg-pNa [20]: 50%
trypsin inhibition assay (residual trypsin activity on Tos-Gly-Pro-Arg-p-NA) (bovine trypsin (bovine) [21]): 60%
Substance: recombinant leech-derived tryptase inhibitor form C, secreted by Saccharomyces cerevisiae (strain S-78 with pRM 9.1.4)

From US5972698
